Measurements taken from the supplement of paper PMC5998384.

How the values were obtained:
HeLa Kyoto [1] = experiment: solubility in G1/S (NP-40 vs SDS abundance) (log2 ratio); higher = more soluble; details: cell cycle stage: G1/S
HeLa Kyoto [2] = experiment: melting temperature (median over replicates), in situ; higher = more thermally stable
HeLa Kyoto [3] = experiment: solubility change mitosis vs G1/S (difference of NP-40 vs SDS log2 ratios) (log2 ratio difference); higher = more soluble in mitosis
HeLa Kyoto [4] = experiment: thermal stability score vs G1/S (z-score of summed log2 fold changes over temperatures); higher = more thermally stable than in G1/S
[5] = cell cycle stage: early G1 (4.5 h after nocodazole release)
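For melting temperature (median over replicates), in situ in this document: HeLa Kyoto cells synchronized by double thymidine or nocodazole block, proteins quantified by TMT10plex mass spectrometry, three independent biological replicates.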
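For solubility change mitosis vs G1/S (difference of NP-40 vs SDS log2 ratios) in this document: synchronized HeLa Kyoto cells (double thymidine block for G1/S, nocodazole release for mitosis), protein amounts in NP-40 versus SDS lysates quantified by mass spectrometry, three biological replicates.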
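For solubility in G1/S (NP-40 vs SDS abundance) in this document: HeLa Kyoto cells arrested at G1/S by double thymidine block, proteins quantified by TMT10plex mass spectrometry in mild NP-40 versus SDS extracts, three biological replicates.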
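For thermal stability score vs G1/S (z-score of summed log2 fold changes over temperatures) in this document: synchronized HeLa Kyoto cells, proteins quantified by TMT10plex mass spectrometry, three biological replicates, mitosis taken 0.5 h after nocodazole release, G1/S directly after double thymidine block.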

Sequence	solubility in G1/S (log2) (HeLa Kyoto [1])	melting temperature (HeLa Kyoto [2]; cell cycle stage: G1/S)	melting temperature (HeLa Kyoto [2]; cell cycle stage: mitosis)	solubility change mitosis (log2) (HeLa Kyoto [3])	thermal stability score (HeLa Kyoto [4]; [5])	thermal stability score (HeLa Kyoto [4]; cell cycle stage: mitosis)
MGILSITDQPPLVQAIFSRDVEEVRSLLSQKENINVLDQERRTPLHAAAYVGDVPILQLLLMSGANVNAKDTLWLTPLHRAAASRNEKVLGLLLAHSADVNARDKLWQTPLHVAAANRATKCAEALAPLLSSLNVADRSGRSALHHAVHSGHLETVNLLLNKGASLNVCDKKERQPLHWAAFLGHLEVLKLLVARGADLGCKDRKGYGLLHTAAASGQIEVVKYLLRMGAEIDEPNAFGNTALHIACYLGQDAVAIELVNAGANVNQPNDKGFTPLHVAAVSTNGALCLELLVNNGADVNYQSKEGKSPLHMAAIHGRFTRSQILIQNGSEIDCADKFGNTPLHVAARYGHELLISTLMTNGADTARRGIHDMFPLHLAVLFGFSDCCRKLLSSGQLYSIVSSLSNEHVLSAGFDINTPDNLGRTCLHAAASGGNVECLNLLLSSGADLRRRDKFGRTPLHYAAANGSYQCAVTLVTAGAGVNEADCKGCSPLHYAAASDTYRRAEPHTPSSHDAEEDEPLKESRRKEAFFCLEFLLDNGADPSLRDRQGYTAVHYAAAYGNRQNLELLLEMSFNCLEDVESTIPVSPLHLAAYNGHCEALKTLAETLVNLDVRDHKGRTALFLATERGSTECVEVLTAHGASALIKERKRKWTPLHAAAASGHTDSLHLLIDSGERADITDVMDAYGQTPLMLAIMNGHVDCVHLLLEKGSTADAADLRGRTALHRGAVTGCEDCLAALLDHDAFVLCRDFKGRTPIHLASACGHTAVLRTLLQAALSTDPLDAGVDYSGYSPMHWASYTGHEDCLELLLEHSPFSYLEGNPFTPLHCAVINNQDSTTEMLLGALGAKIVNSRDAKGRTPLHAAAFADNVSGLRMLLQHQAEVNATDHTGRTALMTAAENGQTAAVEFLLYRGKADLTVLDENKNTALHLACSKGHEKCALMILAETQDLGLINATNSALQMPLHIAARNGLASVVQALLSHGATVLAVDEEGHTPALACAPNKDVADCLALILSTMKPFPPKDAVSPFSFSLLKNCSIAAAKTVGGCGALPHGASCPYSQERPGAIGLDGCYSE [ANKRD52]	-0.0981	51.5 °C	49.7 °C	-0.171	-0.0695	0.105
MPGKLRSDAGLESDTAMKKGETLRKQTEEKEKKEKPKSDKTEEIAEEEETVFPKAKQVKKKAEPSEVDMNSPKSKKAKKKEEPSQNDISPKTKSLRKKKEPIEKKVVSSKTKKVTKNEEPSEEEIDAPKPKKMKKEKEMNGETREKSPKLKNGFPHPEPDCNPSEAASEESNSEIEQEIPVEQKEGAFSNFPISEETIKLLKGRGVTFLFPIQAKTFHHVYSGKDLIAQARTGTGKTFSFAIPLIEKLHGELQDRKRGRAPQVLVLAPTRELANQVSKDFSDITKKLSVACFYGGTPYGGQFERMRNGIDILVGTPGRIKDHIQNGKLDLTKLKHVVLDEVDQMLDMGFADQVEEILSVAYKKDSEDNPQTLLFSATCPHWVFNVAKKYMKSTYEQVDLIGKKTQKTAITVEHLAIKCHWTQRAAVIGDVIRVYSGHQGRTIIFCETKKEAQELSQNSAIKQDAQSLHGDIPQKQREITLKGFRNGSFGVLVATNVAARGLDIPEVDLVIQSSPPKDVESYIHRSGRTGRAGRTGVCICFYQHKEEYQLVQVEQKAGIKFKRIGVPSATEIIKASSKDAIRLLDSVPPTAISHFKQSAEKLIEEKGAVEALAAALAHISGATSVDQRSLINSNVGFVTMILQCSIEMPNISYAWKELKEQLGEEIDSKVKGMVFLKGKLGVCFDVPTASVTEIQEKWHDSRRWQLSVATEQPELEGPREGYGGFRGQREGSRGFRGQRDGNRRFRGQREGSRGPRGQRSGGGNKSNRSQNKGQKRSFSKAFGQ [DDX21]	-1.67	49.3 °C	50.8 °C	0.826	5.09	6.63
MAETSEEVAVLVQRVVKDITNAFRRNPHIDEIGLIPCPEARYNRSPIVLVENKLGVESWCVKFLLPYVHNKLLLYRTRKQWLNRDELIDVTCTLLLLNPDFTTAWNVRKELILSGTLNPIKDLHLGKLALTKFPKSPETWIHRRWVLQQLIQETSLPSFVTKGNLGTIPTERAQRLIQEEMEVCGEAAGRYPSNYNAWSHRIWVLQHLAKLDVKILLDELSSTKHWASMHVSDHSGFHYRQFLLKSLISQTVIDSSVMEQNPLRSEPALVPPKDEEAAVSTEEPRINLPHLLEEEVEFSTDLIDSYPGHETLWCHRRHIFYLQHHLNAGSQLSQAMEVDGLNDSSKQGYSQETKRLKRTPVPDSLGLEMEHRFIDQVLSTCRNVEQARFASAYRKWLVTLSQ [PTAR1]	0.0716	53 °C	52.1 °C	-0.125	-1.63	-2.24
MSQTAMSETYDFLFKFLVIGNAGTGKSCLLHQFIEKKFKDDSNHTIGVEFGSKIINVGGKYVKLQIWDTAGQERFRSVTRSYYRGAAGALLVYDITSRETYNALTNWLTDARMLASQNIVIILCGNKKDLDADREVTFLEASRFAQENELMFLETSALTGENVEEAFVQCARKILNKIESGELDPERMGSGIQYGDAALRQLRSPRRAQAPNAQECGC [RAB4A]	0.0401	59.5 °C	57.6 °C	-0.0763	-3.03	-3.68
MGGPRGAGWVAAGLLLGAGACYCIYRLTRGRRRGDRELGIRSSKSAGALEEGTSEGQLCGRSARPQTGGTWESQWSKTSQPEDLTDGSYDDVLNAEQLQKLLYLLESTEDPVIIERALITLGNNAAFSVNQAIIRELGGIPIVANKINHSNQSIKEKALNALNNLSVNVENQIKIKIYISQVCEDVFSGPLNSAVQLAGLTLLTNMTVTNDHQHMLHSYITDLFQVLLTGNGNTKVQVLKLLLNLSENPAMTEGLLRAQVDSSFLSLYDSHVAKEILLRVLTLFQNIKNCLKIEGHLAVQPTFTEGSLFFLLHGEECAQKIRALVDHHDAEVKEKVVTIIPKI [ARMC10]	0.226	50.8 °C	49.7 °C	-0.108	0.978	1.04
MEAAVAAPRPRLLLLVLAAAAAAAAALLPGATALQCFCHLCTKDNFTCVTDGLCFVSVTETTDKVIHNSMCIAEIDLIPRDRPFVCAPSSKTGSVTTTYCCNQDHCNKIELPTTVKSSPGLGPVELAAVIAGPVCFVCISLMLMVYICHNRTVIHHRVPNEEDPSLDRPFISEGTTLKDLIYDMTTSGSGSGLPLLVQRTIARTIVLQESIGKGRFGEVWRGKWRGEEVAVKIFSSREERSWFREAEIYQTVMLRHENILGFIAADNKDNGTWTQLWLVSDYHEHGSLFDYLNRYTVTVEGMIKLALSTASGLAHLHMEIVGTQGKPAIAHRDLKSKNILVKKNGTCCIADLGLAVRHDSATDTIDIAPNHRVGTKRYMAPEVLDDSINMKHFESFKRADIYAMGLVFWEIARRCSIGGIHEDYQLPYYDLVPSDPSVEEMRKVVCEQKLRPNIPNRWQSCEALRVMAKIMRECWYANGAARLTALRIKKTLSQLSQQEGIKM [TGFBR1]	-0.00326	50.2 °C	50.8 °C	-0.101	0.718	0.929
MGAFLDKPKTEKHNAHGAGNGLRYGLSSMQGWRVEMEDAHTAVVGIPHGLEDWSFFAVYDGHAGSRVANYCSTHLLEHITTNEDFRAAGKSGSALELSVENVKNGIRTGFLKIDEYMRNFSDLRNGMDRSGSTAVGVMISPKHIYFINCGDSRAVLYRNGQVCFSTQDHKPCNPREKERIQNAGGSVMIQRVNGSLAVSRALGDYDYKCVDGKGPTEQLVSPEPEVYEILRAEEDEFIILACDGIWDVMSNEELCEYVKSRLEVSDDLENVCNWVVDTCLHKGSRDNMSIVLVCFSNAPKVSDEAVKKDSELDKHLESRVEEIMEKSGEEGMPDLAHVMRILSAENIPNLPPGGGLAGKRNVIEAVYSRLNPHRESDGASDEAEESGSQGKLVEALRQMRINHRGNYRQLLEEMLTSYRLAKVEGEESPAEPAATATSSNSDAGNPVTMQESHTESESGLAELDSSNEDAGTKMSGEKI [PPM1B]	-0.164	52.9 °C	52.6 °C	0.0659	0.54	-0.803
MAAGAGTAGPASGPGVVRDPAASQPRKRPGREGGEGARRSDTMAGGGGSSDGSGRAAGRRASRSSGRARRGRHEPGLGGPAERGAGEARLEEAVNRWVLKFYFHEALRAFRGSRYGDFRQIRDIMQALLVRPLGKEHTVSRLLRVMQCLSRIEEGENLDCSFDMEAELTPLESAINVLEMIKTEFTLTEAVVESSRKLVKEAAVIICIKNKEFEKASKILKKHMSKDPTTQKLRNDLLNIIREKNLAHPVIQNFSYETFQQKMLRFLESHLDDAEPYLLTMAKKALKSESAASSTGKEDKQPAPGPVEKPPREPARQLRNPPTTIGMMTLKAAFKTLSGAQDSEAAFAKLDQKDLVLPTQALPASPALKNKRPRKDENESSAPADGEGGSELQPKNKRMTISRLVLEEDSQSTEPSAGLNSSQEAASAPPSKPTVLNQPLPGEKNPKVPKGKWNSSNGVEEKETWVEEDELFQVQAAPDEDSTTNITKKQKWTVEESEWVKAGVQKYGEGNWAAISKNYPFVNRTAVMIKDRWRTMKRLGMN [TERF2]	0.0628	48.9 °C	50.3 °C	0.0937	1.08	1.27
MAAAVAAAGAGEPQSPDELLPKGDAEKPEEELEEDDDEELDETLSERLWGLTEMFPERVRSAAGATFDLSLFVAQKMYRFSRAALWIGTTSFMILVLPVVFETEKLQMEQQQQLQQRQILLGPNTGLSGGMPGALPSLPGKI [TOMM22]	-0.782	53.4 °C	52.8 °C	0.211	-3.84	-4.82
MAVLLLLLRALRRGPGPGPRPLWGPGPAWSPGFPARPGRGRPYMASRPPGDLAEAGGRALQSLQLRLLTPTFEGINGLLLKQHLVQNPVRLWQLLGGTFYFNTSRLKQKNKEKDKSKGKAPEEDEEERRRRERDDQMYRERLRTLLVIAVVMSLLNALSTSGGSISWNDFVHEMLAKGEVQRVQVVPESDVVEVYLHPGAVVFGRPRLALMYRMQVANIDKFEEKLRAAEDELNIEAKDRIPVSYKRTGFFGNALYSVGMTAVGLAILWYVFRLAGMTGREGGFSAFNQLKMARFTIVDGKMGKGVSFKDVAGMHEAKLEVREFVDYLKSPERFLQLGAKVPKGALLLGPPGCGKTLLAKAVATEAQVPFLAMAGPEFVEVIGGLGAARVRSLFKEARARAPCIVYIDEIDAVGKKRSTTMSGFSNTEEEQTLNQLLVEMDGMGTTDHVIVLASTNRADILDGALMRPGRLDRHVFIDLPTLQERREIFEQHLKSLKLTQSSTFYSQRLAELTPGFSGADIANICNEAALHAAREGHTSVHTLNFEYAVERVLAGTAKKSKILSKEEQKVVAFHESGHALVGWMLEHTEAVMKVSITPRTNAALGFAQMLPRDQHLFTKEQLFERMCMALGGRASEALSFNEVTSGAQDDLRKVTRIAYSMVKQFGMAPGIGPISFPEAQEGLMGIGRRPFSQGLQQMMDHEARLLVAKAYRHTEKVLQDNLDKLQALANALLEKEVINYEDIEALIGPPPHGPKKMIAPQRWIDAQREKQDLGEEETEETQQPPLGGEEPTWPK [SPG7]	0.0611	51.2 °C	51.9 °C	-0.102	2.94	1.55
MGRLDGKVIILTAAAQGIGQAAALAFAREGAKVIATDINESKLQELEKYPGIQTRVLDVTKKKQIDQFANEVERLDVLFNVAGFVHHGTVLDCEEKDWDFSMNLNVRSMYLMIKAFLPKMLAQKSGNIINMSSVASSVKGVVNRCVYSTTKAAVIGLTKSVAADFIQQGIRCNCVCPGTVDTPSLQERIQARGNPEEARNDFLKRQKTGRFATAEEIAMLCVYLASDESAYVTGNPVIIDGGWSL [BDH2]	0.0418	51.4 °C	51.3 °C	-0.101	0.0249	-0.29
